From patent US20260248972A1, “DUAL RECEPTOR TARGETING RADIOLIGANDS AND USES THEREOF RELATED APPLICATIONS” (priority 2022, published 2026) come the findings set out here.

For orientation: tissue uptake means the share of the injected amount in each gram of the tissue.

Series [1] deals with T1, CCK2R (Homo sapiens, UniProt P32239).
T1 construct: expressed in transfected cells; host or cells: HEK 293T cells
T1 sequence (P32239 1-447): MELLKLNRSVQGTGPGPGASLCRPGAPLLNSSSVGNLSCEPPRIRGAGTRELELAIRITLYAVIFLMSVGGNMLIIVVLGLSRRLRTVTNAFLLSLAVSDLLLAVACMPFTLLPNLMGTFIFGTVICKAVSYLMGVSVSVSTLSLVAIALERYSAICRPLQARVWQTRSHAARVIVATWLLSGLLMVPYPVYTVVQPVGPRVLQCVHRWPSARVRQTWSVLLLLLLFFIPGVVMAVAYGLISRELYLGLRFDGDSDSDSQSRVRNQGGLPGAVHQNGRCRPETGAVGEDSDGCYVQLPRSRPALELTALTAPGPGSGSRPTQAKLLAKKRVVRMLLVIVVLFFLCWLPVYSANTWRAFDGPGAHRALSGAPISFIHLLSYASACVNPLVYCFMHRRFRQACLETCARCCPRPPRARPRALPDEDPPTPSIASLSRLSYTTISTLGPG
Put plainly: Competitive binding (FACS) on CCK2R-transfected HEK 293T cells with Cy5-labeled F11N derivative. Conditions: HEK 293T transfected, Cy5-labeled F11N derivative competitive ligand (Table 4); read-out: CCK2R IC50.
Experimental: Binding Affinity Tested by Using Cy5-Labled Competitive Ligands.
HEK 293T cells were transfected with SSTR2 or CCK2R-expressing plasmid by Lipofectamine 2000 reagent. 24 hours after transfection, cells were harvested and suspended with assay buffer (1% OVA in DMEM). […] The testing compound was further supplemented into the wells at different concentrations. After incubation for 1 hour at dark, cells were washed and suspended in FACS buffer (1% OVA in DPBS).

Series [2] has as its target T2, CCK2R (Rattus norvegicus, UniProt P30553).
T2 construct: host or cells: AR42J cells
T2 sequence (P30553 1-452): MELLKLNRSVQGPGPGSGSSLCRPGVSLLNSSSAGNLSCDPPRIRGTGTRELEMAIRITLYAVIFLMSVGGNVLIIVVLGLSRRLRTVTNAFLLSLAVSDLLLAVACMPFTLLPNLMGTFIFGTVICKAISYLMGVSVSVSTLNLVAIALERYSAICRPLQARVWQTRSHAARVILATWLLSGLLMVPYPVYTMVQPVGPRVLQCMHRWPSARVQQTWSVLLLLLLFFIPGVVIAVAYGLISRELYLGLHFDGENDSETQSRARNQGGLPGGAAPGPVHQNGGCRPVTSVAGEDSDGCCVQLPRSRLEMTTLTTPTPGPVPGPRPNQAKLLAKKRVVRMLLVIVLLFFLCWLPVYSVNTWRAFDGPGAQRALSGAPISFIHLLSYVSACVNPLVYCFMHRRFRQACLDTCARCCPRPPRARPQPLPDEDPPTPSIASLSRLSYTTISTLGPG
As to the kind of experiment: Competitive cell-binding assay on AR42J cells with 125I-C3 as competitive ligand. Put shortly: (§1)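 Rat AR42J cells (1~3×10^6 cells/mL) in RPMI-1640 with 0.25% BSA incubated with 125I-C1 or 125I-C3 (0.02 μCi/well) plus test compound (0-10000 nM) for 1 h at 37° C., n=3. Unbound ligand removed by filtration; bound radioactivity γ-counted; IC50 by nonlinear regression.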

For the next series, the target named is T3, SSTR2 (Rattus norvegicus, UniProt P30680).
T3 construct: host or cells: AR42J cells
As to the kind of experiment: Competitive cell-binding assay on AR42J cells with 125I-C1 as competitive ligand. The essentials:
as §1

A further series is described as follows: in vivo. Conditions: BALB/c nude, mouse, in vivo, iv, total radioactivity. Put shortly: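 Compounds labelled with ^177Lu in 0.5 M NaOAc pH 4.5 at 95° C for 15 min, then used directly or diluted in PBS with 3 mg/mL ascorbate. BALB/c nude mice bore subcutaneous AR42J flank xenografts (0.05-0.50 g). Organs excised at 4, 24 and 72 h post-injection and γ-counted for % ID and % ID/g.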

Like-named read-outs stand apart in the source and are kept apart here.

T3 sequence (P30680 whole entry): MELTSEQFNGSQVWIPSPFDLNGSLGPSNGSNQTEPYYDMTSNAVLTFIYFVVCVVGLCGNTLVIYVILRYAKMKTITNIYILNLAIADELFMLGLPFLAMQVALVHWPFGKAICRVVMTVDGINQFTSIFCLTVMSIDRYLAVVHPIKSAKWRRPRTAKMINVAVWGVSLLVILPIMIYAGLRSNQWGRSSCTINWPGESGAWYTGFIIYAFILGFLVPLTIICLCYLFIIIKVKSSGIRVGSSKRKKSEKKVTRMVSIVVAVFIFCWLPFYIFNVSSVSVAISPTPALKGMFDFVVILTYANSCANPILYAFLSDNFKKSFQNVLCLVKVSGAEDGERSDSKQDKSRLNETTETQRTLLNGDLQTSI

In the case of `CCCC[C@H](NC(=O)[C@H](Cc1c[nH]c2ccccc12)NC(=O)CNC(=O)[C@H](Cc1ccc(O)cc1)NC(=O)[C@H](C)NC(=O)[C@@H](CCC(=O)O)NC(=O)[C@@H](CCC(=O)O)NC(=O)[C@@H](CCC(=O)O)NC(=O)[C@@H](CCC(=O)O)NC(=O)[C@@H](CCC(=O)O)NC(=O)[C@@H](CCC(=O)O)NC(=O)CN1CCN(CC(=O)O)CCN(CC(=O)O)CCN(CC(=O)O)CC1)C(=O)N[C@@H](CC(=O)O)C(=O)N[C@@H](Cc1ccccc1)C(N)=O` [Compound C5, DOTA-e-e-e-e-e-e-Ala-Tyr-Gly-Trp-Nle-Asp-Phe-NH2, reference compound], the IC50 on CCK2R [1] was determined as 25.7 nM.

With `C[C@@H](O)[C@H](NC(=O)[C@@H]1CSSC[C@H](NC(=O)[C@@H](Cc2ccccc2)NC(=O)COCCOCCNC(=O)[C@H](CCCCNC(=O)[C@H](CCC(=O)O)NC(=O)c2cccc(NC(=O)N[C@@H]3CN(C4CCCCC4)c4ccccc4N(CC(=O)C(C)(C)C)C3=O)c2)NC(=O)CN2CCN(CC(=O)O)CCN(CC(=O)O)CCN(CC(=O)O)CC2)C(=O)N[C@@H](Cc2ccc(O)cc2)C(=O)N[C@H](Cc2c[nH]c3ccccc23)C(=O)N[C@@H](CCCCN)C(=O)N[C@@H]([C@@H](C)O)C(=O)N1)C(N)=O` [Compound I-3, DOTA-K(-E-Z360)-OEG-f[CYwKTC]T-NH2], the “Relative Binding Affinity CCK2R” value at CCK2R [2] (based on mean IC50, C-2 = 1.00) turned out to be 5.3. The “Relative Binding Affinity SSTR2” value at SSTR2 (based on mean IC50, C-1 = 1.00) turned out to be 0.50. The tissue to tissue ratio at 24 h stood at 0.8 in the series “in vivo” (T/K Tumor/Kidney ratio); 12 in the series “in vivo” (T/L Tumor/Liver ratio); 13 in the series “in vivo” (T/P Tumor/Pancreas ratio); 45 in the series “in vivo” (T/Sp Tumor/Spleen ratio); 4.2 in “in vivo” (T/St Tumor/Stomach ratio). Also, the tissue uptake at 24 h came out at 16.5 %ID/g in “in vivo” (uptake Kidney); 1.16 %ID/g in the series “in vivo” (uptake Liver); 1.05 %ID/g in “in vivo” (uptake Pancreas); 0.3 %ID/g in “in vivo” (uptake Spleen); 3.24 %ID/g in “in vivo” (uptake Stomach); 13.6 %ID/g in “in vivo” (uptake Tumor).

`C[C@@H](O)[C@H](NC(=O)[C@@H]1CSSC[C@H](NC(=O)[C@@H](Cc2ccccc2)NC(=O)COCCOCCNC(=O)[C@H](CCCCNC(=O)CCC(C(=O)O)N2CCN(CC(=O)O)CCN(CC(=O)O)CCN(CC(=O)O)CC2)NC(=O)COCCOCCNC(=O)CC[C@H](NC(=O)CC[C@H](NC(=O)c2cccc(NC(=O)N[C@@H]3CN(C4CCCCC4)c4ccccc4N(CC(=O)C(C)(C)C)C3=O)c2)C(=O)O)C(=O)O)C(=O)N[C@@H](Cc2ccc(O)cc2)C(=O)N[C@H](Cc2c[nH]c3ccccc23)C(=O)N[C@@H](CCCCN)C(=O)N[C@@H]([C@@H](C)O)C(=O)N1)C(=O)O` (stereo partly drawn) [Compound I-13, (Z360)- gE- gE- OEG- K(DOTAGA)- OEG- f[CYwKTC]T- OH]: the IC50 on CCK2R [2] (AR42J cells, 125I-C3 competitive ligand, 37° C. 1 h, read-out: CCK2R/IC50) was determined as 1.6 nM; at SSTR2 (AR42J cells, 125I-C1 competitive ligand, 37° C. 1 h, read-out: SSTR2/IC50) it was 12.3 nM. The “Relative Binding Affinity CCK2R” value on CCK2R [2] (based on mean IC50, C-2 = 1.00) is on record as 10.8. The “Relative Binding Affinity SSTR2” value at SSTR2 (based on mean IC50, C-1 = 1.00) was 0.23. The tissue to tissue ratio at 24 h in “in vivo” (T/K Tumor/Kidney ratio) stood at 0.3; in “in vivo” (T/L Tumor/Liver ratio), 12; in the series “in vivo” (T/P Tumor/Pancreas ratio) it was 12; in the series “in vivo” (T/Sp Tumor/Spleen ratio), 32; in “in vivo” (T/St Tumor/Stomach ratio), 6.8. In addition, the tissue uptake at 24 h in “in vivo” (uptake Kidney) stood at 46.7 %ID/g; in the series “in vivo” (uptake Liver) it was 1.21 %ID/g; in “in vivo” (uptake Pancreas), 1.21 %ID/g; in “in vivo” (uptake Spleen), 0.47 %ID/g; in the series “in vivo” (uptake Stomach), 2.19 %ID/g; in “in vivo” (uptake Tumor), 14.8 %ID/g.

For `C[C@@H](O)[C@H](NC(=O)[C@@H]1CSSC[C@H](NC(=O)[C@@H](Cc2ccccc2)NC(=O)[C@H](CCCCNC(=O)COCCOCCNC(=O)c2cccc(NC(=O)N[C@@H]3CN(C4CCCCC4)c4ccccc4N(CC(=O)C(C)(C)C)C3=O)c2)NC(=O)CN2CCN(CC(=O)O)CCN(CC(=O)O)CCN(CC(=O)O)CC2)C(=O)N[C@@H](Cc2ccc(O)cc2)C(=O)N[C@H](Cc2c[nH]c3ccccc23)C(=O)N[C@@H](CCCCN)C(=O)N[C@@H]([C@@H](C)O)C(=O)N1)C(=O)O` [Compound I-36, DOTA-K(-OEG-Z360)-f[CYwKTC]T-OH], the values for the IC50 on CCK2R [2] and at SSTR2 were 4.2 nM and 1.6 nM, respectively. The “Relative Binding Affinity CCK2R” value at CCK2R [2] was determined as 4.0. For the same compound, the “Relative Binding Affinity SSTR2” value on SSTR2 is given as 1.76. The tissue to tissue ratio at 24 h in the series “in vivo” (T/K Tumor/Kidney ratio, 177Lu-labeled, 24 hours after dosing) is 2.9; in “in vivo” (T/L Tumor/Liver ratio, 177Lu-labeled, 24 hours after dosing) it was 4.3; in the series “in vivo” (T/P Tumor/Pancreas ratio, 177Lu-labeled, 24 hours after dosing), 13; in “in vivo” (T/Sp Tumor/Spleen ratio, 177Lu-labeled, 24 hours after dosing), 36; in the series “in vivo” (T/St Tumor/Stomach ratio, 177Lu-labeled, 24 hours after dosing) it was 11. Moreover, the tissue uptake at 24 h in the series “in vivo” (uptake Kidney, 177Lu-labeled, 24 hours after dosing (Table 5)) came out at 7.4 %ID/g; in the series “in vivo” (uptake Liver, 177Lu-labeled, 24 hours after dosing (Table 5)) it was 5 %ID/g; in the series “in vivo” (uptake Pancreas, 177Lu-labeled, 24 hours after dosing (Table 5)), 1.6 %ID/g; in “in vivo” (uptake Spleen, 177Lu-labeled, 24 hours after dosing (Table 5)) it was 0.6 %ID/g; in “in vivo” (uptake Stomach, 177Lu-labeled, 24 hours after dosing (Table 5)) it was 2 %ID/g; in “in vivo” (uptake Tumor, 177Lu-labeled, 24 hours after dosing (Table 5)), 21.6 %ID/g.

For the compound `C[C@@H](O)[C@H](NC(=O)[C@@H]1CSSC[C@H](NC(=O)[C@@H](Cc2ccccc2)NC(=O)COCCOCCNC(=O)C(CCCCNC(=O)CC[C@H](NC(=O)CNC(=O)c2cccc(NC(=O)N[C@@H]3CN(C4CCCCC4)c4ccccc4N(CC(=O)C(C)(C)C)C3=O)c2)C(=O)O)NC(=O)COCCOCCNC(=O)CC[C@H](NC(=O)CC[C@H](NC(=O)CN2CCN(CC(=O)O)CCN(CC(=O)O)CCN(CC(=O)O)CC2)C(=O)O)C(=O)O)C(=O)N[C@@H](Cc2ccc(O)cc2)C(=O)N[C@H](Cc2c[nH]c3ccccc23)C(=O)N[C@@H](CCCCN)C(=O)N[C@@H]([C@@H](C)O)C(=O)N1)C(=O)O` (stereo in doubt) [Compound I-14, DOTA-gE-gE-OEG-K(-gE-G-Z360)-OEG-f[CYwKTC]T-OH], the “Relative Binding Affinity CCK2R” value at CCK2R [2] (based on mean IC50, C-2 = 1.00) was determined as 3.80. In addition, the “Relative Binding Affinity SSTR2” value on SSTR2 (based on mean IC50, C-1 = 1.00) is reported as 3.50. Also, the tissue to tissue ratio at 24 h in “in vivo” (T/K Tumor/Kidney ratio) was 0.2; in “in vivo” (T/L Tumor/Liver ratio) it was 6.7; in the series “in vivo” (T/P Tumor/Pancreas ratio), 4.4; in the series “in vivo” (T/Sp Tumor/Spleen ratio), 27; in the series “in vivo” (T/St Tumor/Stomach ratio) it was 6.6. The tissue uptake at 24 h in “in vivo” (uptake Kidney) is 68.6 %ID/g; in the series “in vivo” (uptake Liver), 2.24 %ID/g; in “in vivo” (uptake Pancreas) it was 3.37 %ID/g; in “in vivo” (uptake Spleen) it was 0.56 %ID/g; in the series “in vivo” (uptake Stomach) it was 2.25 %ID/g; in “in vivo” (uptake Tumor) it was 14.9 %ID/g.
